Measurements: patent publication US20240376151A1, “STAPLED PEPTIDES AND METHODS THEREOF” (FOG PHARMACEUTICALS, INC., priority 2022, published 2024)

Target: T1, RNF31 UBA domain (Homo sapiens, UniProt Q96EP0)
T1 construct: RNF31 UBA domain protein (residues 480-639) with N-terminal Thioredoxin-TEV-6×his-yBBr-3C tags; Thioredoxin (N, cleaved yes); made in house; host or cells: E. coli BL21 (DE3) pLysS
T1 sequence (Q96EP0 480-639): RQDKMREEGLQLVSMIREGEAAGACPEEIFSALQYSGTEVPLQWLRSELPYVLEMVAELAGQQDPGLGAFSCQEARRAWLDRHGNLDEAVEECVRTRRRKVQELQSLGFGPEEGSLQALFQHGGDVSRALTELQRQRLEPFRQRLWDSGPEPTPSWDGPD
Experiment: Phage Library Screening with NGS, RNF31 UBA domain
Type: binding
Conditions: for phage screen NGS read-out at Target Concentration 10 / phage screen NGS read-out at Target Concentration 30 / phage screen NGS read-out at Target Concentration 100 / phage screen NGS read-out at Target Concentration 300: no competitor; for Phage library screen NGS readout, Target Concentration 10 / Phage library screen NGS readout, Target Concentration 30 / Phage library screen NGS readout, Target Concentration 100 / Phage library screen NGS readout, Target Concentration 1000 / Phage library screen NGS readout, Target Concentration 300: RNF31 UBA domain cluster C46; for Phage library screen NGS readout, BLANK: cluster C46

[1] = target concentration 1000, first column
[2] = target concentration 1000, second column

phage screen NGS read-out at Target Concentration 10 | phage screen NGS read-out at Target Concentration 30 | phage screen NGS read-out at Target Concentration 100 | phage screen NGS read-out at Target Concentration 300 | Phage library screen NGS readout, Target Concentration 10 | Phage library screen NGS readout, Target Concentration 30 | Phage library screen NGS readout, Target Concentration 100 | Phage library screen NGS readout, Target Concentration 1000 [1] | Phage library screen NGS readout, Target Concentration 1000 [2] | Phage library screen NGS readout, BLANK (column 1 of 5) | Phage library screen NGS readout, BLANK (column 2 of 5) | Phage library screen NGS readout, BLANK (column 3 of 5) | Phage library screen NGS readout, BLANK (column 4 of 5) | Phage library screen NGS readout, BLANK (column 5 of 5) | Phage library screen NGS readout, Target Concentration 300 | Sequence
0 | 0 | 0 | 2 |  |  |  |  |  |  |  |  |  |  |  | DPAFSQCIYAAFQCDMQ
 |  |  |  | 3 | 24 | 137 | 292 | 319 | 0 | 1 | 1 | 0 | 1 |  | DPAQRQCLSAAVFCATL
1 | 0 | 6 | 35 |  |  |  |  |  |  |  |  |  |  |  | DPASSHCQSAAIWCYLM
0 | 0 | 0 | 2 |  |  |  |  |  |  |  |  |  |  |  | DPAQVHCRSAAAWCILM
0 | 0 | 4 | 10 |  |  |  |  |  |  |  |  |  |  |  | DPAEWICRMAAMNCLYQ (Ac-DPAEWICRMAAMNCLYQ-NH2; not fully specified (bridges); cysteine pairing not given here)
0 | 0 | 1 | 4 |  |  |  |  |  |  |  |  |  |  |  | DPAREHCDSAAAWCWVL
0 | 0 | 2 | 30 |  |  |  |  |  |  |  |  |  |  |  | DPADLICQLAAANCIYL
0 | 0 | 1 | 8 |  |  |  |  |  |  |  |  |  |  |  | DPASIHCAAAALWCDIL
 |  |  |  | 0 | 6 | 10 | 15 | 25 | 0 | 0 | 1 | 0 | 1 | 18 | DPALRTCLSAAVFCAVA
0 | 1 | 0 | 2 |  |  |  |  |  |  |  |  |  |  |  | DPAAFVCEMAANDCLYT
3 | 1 | 1 | 1 |  |  |  |  |  |  |  |  |  |  |  | DPAHILCEMAARNCLYN
0 | 0 | 0 | 3 |  |  |  |  |  |  |  |  |  |  |  | DPANEHCIAAAWWCQIL
0 | 0 | 8 | 20 |  |  |  |  |  |  |  |  |  |  |  | DPAFSLCVYAALFCEQQ
0 | 0 | 0 | 2 |  |  |  |  |  |  |  |  |  |  |  | DPAHEHCTSAAAWCMLL
1 | 0 | 11 | 30 |  |  |  |  |  |  |  |  |  |  |  | DPAYEHCVAAAYWCYLL
 |  |  |  | 0 | 0 | 6 | 9 | 10 | 0 | 0 | 0 | 0 | 0 | 10 | DPALQSCLSAAVYCTVS
0 | 1 | 1 | 6 |  |  |  |  |  |  |  |  |  |  |  | DPAHVHCQAAAQWCVLL

phage screen NGS read-out at Target Concentration 10 | phage screen NGS read-out at Target Concentration 30 | phage screen NGS read-out at Target Concentration 100 | phage screen NGS read-out at Target Concentration 300 | Phage library screen NGS readout, Target Concentration 10 | Phage library screen NGS readout, Target Concentration 30 | Phage library screen NGS readout, Target Concentration 100 | Phage library screen NGS readout, Target Concentration 1000 [1] | Phage library screen NGS readout, Target Concentration 1000 [2] | Phage library screen NGS readout, BLANK (column 1 of 5) | Phage library screen NGS readout, BLANK (column 2 of 5) | Phage library screen NGS readout, BLANK (column 3 of 5) | Phage library screen NGS readout, BLANK (column 4 of 5) | Phage library screen NGS readout, BLANK (column 5 of 5) | Phage library screen NGS readout, Target Concentration 300 | Sequence
 |  |  |  | 0 | 0 | 8 | 16 | 13 | 0 | 0 | 0 | 1 | 0 | 13 | DPAASQCFSAAVYCAWI
0 | 0 | 3 | 19 |  |  |  |  |  |  |  |  |  |  |  | DPAFSTCIYAAVMCMDQ
0 | 1 | 1 | 6 |  |  |  |  |  |  |  |  |  |  |  | DPAMYICEMAAANCLYQ
1 | 15 | 38 | 77 |  |  |  |  |  |  |  |  |  |  |  | DPASMVCLSAAVYCAMH
0 | 0 | 3 | 8 |  |  |  |  |  |  |  |  |  |  |  | DPAHEHCTAAASWCYIL
 |  |  |  | 0 | 0 | 3 | 5 | 7 | 0 | 0 | 0 | 0 | 0 | 4 | DPAHVRCTSAALWCNIF
0 | 0 | 1 | 8 |  |  |  |  |  |  |  |  |  |  |  | DPAFSTCVYAAVFCQNT
 |  |  |  | 5 | 17 | 122 | 247 | 297 | 0 | 0 | 1 | 0 | 0 | 255 | DPASASCLSAAIYCSMF
1 | 2 | 4 | 20 |  |  |  |  |  |  |  |  |  |  |  | DPALQHCAAAASWCWLM
0 | 0 | 2 | 4 |  |  |  |  |  |  |  |  |  |  |  | DPALSTCVYAAVMCQDV
2 | 0 | 11 | 55 |  |  |  |  |  |  |  |  |  |  |  | DPAFSQCVYAAVVCEVQ
0 | 0 | 1 | 10 |  |  |  |  |  |  |  |  |  |  |  | DPAFSRCVYAAFTCQTF
0 | 0 | 0 | 1 |  |  |  |  |  |  |  |  |  |  |  | DPADWTCVLAAHNCLYT
 |  |  |  | 0 | 0 | 11 | 10 | 17 | 0 | 0 | 0 | 0 | 0 | 10 | DPAQMSCFSAAVYCRLF
1 | 0 | 1 | 28 |  |  |  |  |  |  |  |  |  |  |  | DPAREHCAAAATWCOLL (DPAREHCAAAATWCQLL)
0 | 1 | 3 | 31 |  |  |  |  |  |  |  |  |  |  |  | DPAFSRCVYAAVACEDH
1 | 0 | 9 | 80 |  |  |  |  |  |  |  |  |  |  |  | DPAITHCTAAAMWCHLL
